Experimental data taken from the supplement of paper PMC11246515.
± gives the standard deviation of the averaged measurements.

Test: total protein half-life in vivo (active degradation + dilution); higher = more stable protein
[1] = E. coli NCM3722 delta-clpP delta-lon delta-hslV, growth: N-lim chemostat, doubling time 6 h
[2] = E. coli NCM3722 delta-clpP, growth: N-lim chemostat, doubling time 6 h
[3] = E. coli NCM3722 delta-hslV, growth: N-lim chemostat, doubling time 6 h
[4] = E. coli NCM3722 delta-lon, growth: N-lim chemostat, doubling time 6 h
[5] = wild type E. coli NCM3722, growth: C-lim chemostat, doubling time 3 h
[6] = wild type E. coli NCM3722, growth: N-lim chemostat, doubling time 6 h
[7] = E. coli NCM3722 delta-smpB, growth: N-lim chemostat, doubling time 6 h
[8] = wild type E. coli NCM3722, growth: N-lim chemostat, doubling time 12 h
[9] = wild type E. coli NCM3722, growth: C-lim chemostat, doubling time 6 h
[10] = wild type E. coli NCM3722, growth: C-lim chemostat, doubling time 12 h
[11] = wild type E. coli NCM3722, growth: P-lim chemostat, doubling time 6 h
[12] = wild type E. coli NCM3722, growth: P-lim chemostat, doubling time 12 h

With “MSQVLITGATGLVGGHLLRMLINEPKVNAIAAPTRRPLGDMPGVFNPHDPQLSDALAQVTDPIDIVFCCLGTTRREAGSKEAFIHADYTLVVDTALTGRRLGAQHMLVVSAMGANAHSPFFYNRVKGEMEEALIAQNWPKLTIARPSMLLGDRSKQRMNETLFAPLFRLLPGNWKSIDARDVARVMLAESMRPEHEGVTILSSSELRKRAE” the “total protein half-life in vivo” value [1] was 6.13 ± 0.065 h, the “total protein half-life in vivo” value [2] was 5.36 ± 0.4 h and the “total protein half-life in vivo” value [3] was 5.98 ± 0.48 h. For the same sequence, the “total protein half-life in vivo” value [4] was 6.26 ± 0.69 h, the “total protein half-life in vivo” value [5] was 3.24 ± 0.14 h and the “total protein half-life in vivo” value [6] was 5.69 ± 1.1 h.
In the case of “MSRFVPRIIPFYLLLLVAGGTANAQSTFEQKAANPFDNNNDGLPDLGMAPENHDGEKHFAEIVKDFGETSMNDNGLDTGEQAKAFALGKVRDALSQQVNQHVESWLSPWGNASVDVKVDNEGHFTGSRGSWFVPLQDNDRYLTWSQLGLTQQDNGLVSNVGVGQRWARGNWLVGYNTFYDNLLDENLQRAGFGAEAWGEYLRLSANFYQPFAAWHEQTATQEQRMARGYDLTARMRMPFYQHLNTSVSLEQYFGDRVDLFNSGTGYHNPVALSLGLNYTPVPLVTVTAQHKQGESGENQNNLGLNLNYRFGVPLKKQLSAGEVAESQSLRGSRYDNPQRNNLPTLEYRQRKTLTVFLATPPWDLKPGETVPLKLQIRSRYGIRQLIWQGDTQILSLTPGAQANSAEGWTLIMPDWQNGEGASNHWRLSVVVEDNQGQRVSSNEITLTLVEPFDALSNDELRWEP”, the “total protein half-life in vivo” value [2] is reported as 6.12 h, the “total protein half-life in vivo” value [3] is reported as 5.24 ± 1.5 h and the “total protein half-life in vivo” value [4] is reported as 5.79 ± 1.8 h. For the same sequence, the “total protein half-life in vivo” value [7] was 5.36 ± 0.54 h, the “total protein half-life in vivo” value [6] was 6.73 ± 1 h and the “total protein half-life in vivo” value [8] was 14.3 ± 1.6 h.
With “MSRIIMLIPTGTSVGLTSVSLGVIRAMERKGVRLSVFKPIAQPRTGGDAPDQTTTIVRANSSTTTAAEPLKMSYVEGLLSSNQKDVLMEEIVANYHANTKDAEVVLVEGLVPTRKHQFAQSLNYEIAKTLNAEIVFVMSQGTDTPEQLKERIELTRNSFGGAKNTNITGVIVNKLNAPVDEQGRTRPDLSEIFDDSSKAKVNNVDPAKLQESSPLPVLGAVPWSFDLIATRAIDMARHLNATIINEGDINTRRVKSVTFCARSIPHMLEHFRAGSLLVTSADRPDVLVAACLAAMNGVEIGALLLTGGYEMDARISKLCERAFATGLPVFMVNTNTWQTSLSLQSFNLEVPVDDHERIEKVQEYVANYINADWIESLTATSERSRRLSPPAFRYQLTELARKAGKRIVLPEGDEPRTVKAAAICAERGIATCVLLGNPAEINRVAASQGVELGAGIEIVDPEVVRESYVGRLVELRKNKGMTETVAREQLEDNVVLGTLMLEQDEVDGLVSGAVHTTANTIRPPLQLIKTAPGSSLVSSVFFMLLPEQVYVYGDCAINPDPTAEQLAEIAIQSADSAAAFGIEPRVAMLSYSTGTSGAGSDVEKVREATRLAQEKRPDLMIDGPLQYDAAVMADVAKSKAPNSPVAGRATVFIFPDLNTGNTTYKAVQRSADLISIGPMLQGMRKPVNDLSRGALVDDIVYTIALTAIQSAQQQ [P0A9M8]” the “total protein half-life in vivo” value [1] was 6.116 ± 0.01 h, the “total protein half-life in vivo” value [2] was 5.89 ± 0.68 h and the “total protein half-life in vivo” value [3] was 6.22 ± 0.38 h. For the same sequence, the “total protein half-life in vivo” value [4] was 6.08 ± 0.32 h, the “total protein half-life in vivo” value [7] was 5.973 ± 0.042 h and the “total protein half-life in vivo” value [5] was 3.14 ± 0.039 h. For the same sequence, the “total protein half-life in vivo” value [9] was 5.61 ± 0.24 h, the “total protein half-life in vivo” value [10] was 11 ± 0.26 h and the “total protein half-life in vivo” value [6] was 6.14 ± 0.12 h. For the same sequence, the “total protein half-life in vivo” value [8] was 11.99 ± 0.054 h, the “total protein half-life in vivo” value [11] was 6.32 ± 0.58 h and the “total protein half-life in vivo” value [12] was 11.8 ± 0.43 h.
In the case of “MSRKDLANAIRALSMDAVQKANSGHPGAPMGMADIAEVLWNDFLKHNPTDPTWYDRDRFILSNGHASMLLYSLLHLTGYDLPLEELKNFRQLHSKTPGHPEIGYTPGVETTTGPLGQGLANAVGLAIAERTLAAQFNQPDHEIVDHFTYVFMGDGCLMEGISHEVCSLAGTLGLGKLIGFYDHNGISIDGETEGWFTDDTAKRFEAYHWHVIHEIDGHDPQAVKEAILEAQSVKDKPSLIICRTVIGFGSPNKAGKEEAHGAPLGEEEVALARQKLGWHHPPFEIPKEIYHAWDAREKGEKAQQSWNEKFAAYKKAHPQLAEEFTRRMSGGLPKDWEKTTQKYINELQANPAKIATRKASQNTLNAYGPMLPELLGGSADLAPSNLTIWKGSVSLKEDPAGNYIHYGVREFGMTAIANGIAHHGGFVPYTATFLMFVEYARNAARMAALMKARQIMVYTHDSIGLGEDGPTHQAVEQLASLRLTPNFSTWRPCDQVEAAVGWKLAVERHNGPTALILSRQNLAQVERTPDQVKEIARGGYVLKDSGGKPDIILIATGSEMEITLQAAEKLAGEGRNVRVVSLPSTDIFDAQDEEYRESVLPSNVAARVAVEAGIADYWYKYVGLKGAIVGMTGYGESAPADKLFPFFGFTAENIVAKAHKVLGVKGA”, the “total protein half-life in vivo” value [1] is reported as 4.98 ± 0.07 h, the “total protein half-life in vivo” value [2] is reported as 5.07 ± 0.55 h and the “total protein half-life in vivo” value [3] is reported as 4.95 ± 0.06 h. The “total protein half-life in vivo” value [4] was 5.06 ± 0.13 h, the “total protein half-life in vivo” value [7] was 4.75 ± 0.27 h and the “total protein half-life in vivo” value [5] was 3.08 ± 0.16 h. The “total protein half-life in vivo” value [9] was 5.63 ± 0.22 h, the “total protein half-life in vivo” value [10] was 10.8 ± 0.69 h and the “total protein half-life in vivo” value [6] was 4.52 ± 0.16 h. The “total protein half-life in vivo” value [8] was 8.32 ± 0.16 h, the “total protein half-life in vivo” value [11] was 5.83 ± 0.35 h and the “total protein half-life in vivo” value [12] was 11.5 ± 0.12 h.
With “MSRLVVVSNRIAPPDEHAASAGGLAVGILGALKAAGGLWFGWSGETGNEDQPLKKVKKGNITWASFNLSEQDLDEYYNQFSNAVLWPAFHYRLDLVQFQRPAWDGYLRVNALLADKLLPLLQDDDIIWIHDYHLLPFAHELRKRGVNNRIGFFLHIPFPTPEIFNALPTYDTLLEQLCDYDLLGFQTENDRLAFLDCLSNLTRVTTRSAKSHTAWGKAFRTEVYPIGIEPKEIAKQAAGPLPPKLAQLKAELKNVQNIFSVERLDYSKGLPERFLAYEALLEKYPQHHGKIRYTQIAPTSRGDVQAYQDIRHQLENEAGRINGKYGQLGWTPLYYLNQHFDRKLLMKIFRYSDVGLVTPLRDGMNLVAKEYVAAQDPANPGVLVLSQFAGAANELTSALIVNPYDRDEVAAALDRALTMSLAERISRHAEMLDVIVKNDINHWQECFISDLKQIVPRSAESQQRDKVATFPKLA” the “total protein half-life in vivo” value [1] was 5.02 ± 0.71 h, the “total protein half-life in vivo” value [2] was 4.68 ± 0.38 h and the “total protein half-life in vivo” value [3] was 2.95 ± 0.046 h. For the same sequence, the “total protein half-life in vivo” value [4] was 3.23 ± 0.4 h, the “total protein half-life in vivo” value [7] was 2.85 ± 0.093 h and the “total protein half-life in vivo” value [5] was 2.4 ± 0.054 h. For the same sequence, the “total protein half-life in vivo” value [9] was 3.858 ± 0.033 h, the “total protein half-life in vivo” value [10] was 6.061 ± 0.06 h and the “total protein half-life in vivo” value [6] was 3.02 ± 0.29 h. For the same sequence, the “total protein half-life in vivo” value [8] was 4.47 ± 0.49 h, the “total protein half-life in vivo” value [11] was 3.72 ± 0.24 h and the “total protein half-life in vivo” value [12] was 6.83 ± 0.3 h.
In the case of “MSRMAEQQLYIHGGYTSATSGRTFETINPANGNVLATVQAAGREDVDRAVKSAQQGQKIWASMTAMERSRILRRAVDILRERNDELAKLETLDTGKAYSETSTVDIVTGADVLEYYAGLIPALEGSQIPLRETSFVYTRREPLGVVAGIGAWNYPIQIALWKSAPALAAGNAMIFKPSEVTPLTALKLAEIYSEAGLPDGVFNVLPGVGAETGQYLTEHPGIAKVSFTGGVASGKKVMANSAASSLKEVTMELGGKSPLIVFDDADLDLAADIAMMANFFSSGQVCTNGTRVFVPAKCKAAFEQKILARVERIRAGDVFDPQTNFGPLVSFPHRDNVLRYIAKGKEEGARVLCGGDVLKGDGFDNGAWVAPTVFTDCSDDMTIVREEIFGPVMSILTYESEDEVIRRANDTDYGLAAGIVTADLNRAHRVIHQLEAGICWINTWGESPAEMPVGGYKHSGIGRENGVMTLQSYTQVKSIQVEMAKFQSIF”, the “total protein half-life in vivo” value [1] is reported as 5.11 ± 0.25 h, the “total protein half-life in vivo” value [2] is reported as 5.45 ± 1.3 h and the “total protein half-life in vivo” value [3] is reported as 5.06 ± 0.11 h. For the same sequence, the “total protein half-life in vivo” value [4] was 5.28 ± 0.61 h, the “total protein half-life in vivo” value [7] was 4.486 ± 0.038 h and the “total protein half-life in vivo” value [9] was 5.21 ± 0.24 h. For the same sequence, the “total protein half-life in vivo” value [10] was 11.1 ± 0.13 h, the “total protein half-life in vivo” value [6] was 4.37 ± 0.14 h and the “total protein half-life in vivo” value [8] was 7.63 ± 0.23 h. For the same sequence, the “total protein half-life in vivo” value [11] was 6 ± 0.24 h and the “total protein half-life in vivo” value [12] was 11.7 ± 0.46 h.
